Reference: the supplement of paper PMC5998384

Tests used:
HeLa Kyoto [1] = assay: solubility in G1/S (NP-40 vs SDS abundance) (log2 ratio); higher = more soluble; conditions: cell cycle stage: G1/S
HeLa Kyoto [2] = assay: solubility change mitosis vs G1/S (difference of NP-40 vs SDS log2 ratios) (log2 ratio difference); higher = more soluble in mitosis
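Throughout, for solubility change mitosis vs G1/S (difference of NP-40 vs SDS log2 ratios): synchronized HeLa Kyoto cells (double thymidine block for G1/S, nocodazole release for mitosis), protein amounts in NP-40 versus SDS lysates quantified by mass spectrometry, three biological replicates.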
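Throughout, for solubility in G1/S (NP-40 vs SDS abundance): HeLa Kyoto cells arrested at G1/S by double thymidine block, proteins quantified by TMT10plex mass spectrometry in mild NP-40 versus SDS extracts, three biological replicates.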

EPB41L5, sequence (chain, as listed by the source): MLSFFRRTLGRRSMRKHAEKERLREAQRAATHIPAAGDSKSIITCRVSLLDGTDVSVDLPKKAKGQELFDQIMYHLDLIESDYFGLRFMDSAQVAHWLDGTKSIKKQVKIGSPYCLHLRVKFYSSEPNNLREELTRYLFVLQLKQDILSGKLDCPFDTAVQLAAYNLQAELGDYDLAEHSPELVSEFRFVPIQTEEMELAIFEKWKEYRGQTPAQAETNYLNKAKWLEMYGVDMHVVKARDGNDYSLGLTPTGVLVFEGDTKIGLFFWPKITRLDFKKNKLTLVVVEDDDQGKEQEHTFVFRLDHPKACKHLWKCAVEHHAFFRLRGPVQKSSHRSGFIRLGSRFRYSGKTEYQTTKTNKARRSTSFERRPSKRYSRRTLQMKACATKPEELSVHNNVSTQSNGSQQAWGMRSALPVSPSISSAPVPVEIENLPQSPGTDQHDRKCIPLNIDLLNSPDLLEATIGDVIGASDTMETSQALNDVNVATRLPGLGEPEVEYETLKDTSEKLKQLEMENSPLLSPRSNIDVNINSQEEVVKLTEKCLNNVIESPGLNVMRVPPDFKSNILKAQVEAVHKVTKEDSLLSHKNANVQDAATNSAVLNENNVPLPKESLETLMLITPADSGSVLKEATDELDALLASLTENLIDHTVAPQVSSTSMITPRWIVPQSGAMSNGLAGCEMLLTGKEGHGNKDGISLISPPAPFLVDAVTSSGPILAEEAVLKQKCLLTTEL

MSEVLPADSGVDTLAVFMASSGTTDVTNRNSPATPPNTLNLRSSHNELLNAEIKHTETKNSTPPKCRKKYALTNIQAAMGLSDPAAQPLLGNGSANIKLVKNGENQLRKAAEQGQQDPNKNLSPTAVINITSEKLEGKEPHPQDSSSCEILPSQPRRTKSFLNYYADLETSARELEQNRGNHHGTAEEKSQPVQGQASTIIGNGDLLLQKPNRPQSSPEDGQVATVSSSPETKKDHPKTGAKTDCALHRIQNLAPSDEESSWTTLSQDSASPSSPDETDIWSDHSFQTDPDLPPGWKRVSDIAGTYYWHIPTGTTQWERPVSIPADLQGSRKGSLSSVTPSPTPENEKQPWSDFAVLNGGKINSDIWKDLHAATVNPDPSLKEFEGATLRYASLKLRNAPHPDDDDSCSINSDPEAKCFAVRSLGWVEMAEEDLAPGKSSVAVNNCIRQLSYCKNDIRDTVGIWGEGKDMYLILENDMLSLVDPMDRSVLHSQPIVSIRVWGVGRDNGRDFAYVARDKDTRILKCHVFRCDTPAKAIATSLHEICSKIMAERKNAKALACSSLQERANVNLDVPLQVDFPTPKTELVQKFHVQYLGMLPVDKPVGMDILNSAIENLMTSSNKEDWLSVNMNVADATVTVISEKNEEEVLVECRVRFLSFMGVGKDVHTFAFIMDTGNQRFECHVFWCEPNAGNVSEAVQAACMLRYQKCLVARPPSQKVRPPPPPADSVTRRVTTNVKRGVLSLIDTLKQKRPVTEMP [APBB2]
solubility in G1/S (log2) (HeLa Kyoto [1]): 0.0839
solubility change mitosis (log2) (HeLa Kyoto [2]): -0.0698

BRCA1
solubility in G1/S (log2) (HeLa Kyoto [1]): -0.318
solubility change mitosis (log2) (HeLa Kyoto [2]): 0.246

MESTAYPLNLSLKEEEEEEEIQSRELEDGPADMQKVRICSEGGWVPALFDEVAIYFSDEEWEVLTEQQKALYREVMRMNYETVLSLEFPFPKPDMITRLEGEEESQNSDEWQLQGGTSAENEESDVKPPDWPNPMNATSQFPQPQHFDSFGLRLPRDITELPEWSEGYPFYMAMGFPGYDLSADDIAGKFQFSRGMRRSYDAGFKLMVVEYAESTNNCQAAKQFGVLEKNVRDWRKVKPQLQNAHAMRRAFRGPKNGRFALVDQRVAEYVRYMQAKGDPITREAMQLKALEIAQEMNIPEKGFKASLGWCRRMMRRYDLSLRHKVPVPQHLPEDLTEKLVTYQRSVLALRRAHDYEVAQMGNADETPICLEVPSRVTVDNQGEKPVLVKTPGREKLKITAMLGVLADGRKLPPYIILRGTYIPPGKFPSGMEIRCHRYGWMTEDLMQDWLEVVWRRRTGAVPKQRGMLILNGFRGHATDSVKNSMESMNTDMVIIPGGLTSQLQVLDVVVYKPLNDSVRAQYSNWLLAGNLALSPTGNAKKPPLGLFLEWVMVAWNSISSESIVQGFKKCHISSNLEEEDDVLWEIESELPGGGEPPKDCDTESMAESN [POGK]
solubility in G1/S (log2) (HeLa Kyoto [1]): -0.0733
solubility change mitosis (log2) (HeLa Kyoto [2]): -0.0638

MVRTKADSVPGTYRKVVAARAPRKVLGSSTSATNSTSVSSRKAENKYAGGNPVCVRPTPKWQKGIGEFFRLSPKDSEKENQIPEEAGSSGLGKAKRKACPLQPDHTNDEKE [KIAA0101]
solubility in G1/S (log2) (HeLa Kyoto [1]): -0.0358
solubility change mitosis (log2) (HeLa Kyoto [2]): 0.256

MAAGSDLLDEVFFNSEVDEKVVSDLVGSLESQLAASAAHHHHLAPRTPEVRAAAAGALGNHVVSGSPAGAAGAGPAAPAEGAPGAAPEPPPAGRARPGGGGPQRPGPPSPRRPLVPAGPAPPAAKLRPPPEGSAGSCAPVPAAAAVAAGPEPAPAGPAKPAGPAALAARAGPGPGPGPGPGPGPGPGKPAGPGAAQTLNGSAALLNSHHAAAPAVSLVNNGPAALLPLPKPAAPGTVIQTPPFVGAAAPPAPAAPSPPAAPAPAAPAAAPPPPPPAPATLARPPGHPAGPPTAAPAVPPPAAAQNGGSAGAAPAPAPAAGGPAGVSGQPGPGAAAAAPAPGVKAESPKRVVQAAPPAAQTLAASGPASTAASMVIGPTMQGALPSPAAVPPPAPGTPTGLPKGAAGAVTQSLSRTPTATTSGIRATLTPTVLAPRLPQPPQNPTNIQNFQLPPGMVLVRSENGQLLMIPQQALAQMQAQAHAQPQTTMAPRPATPTSAPPVQISTVQAPGTPIIARQVTPTTIIKQVSQAQTTVQPSATLQRSPGVQPQLVLGGAAQTASLGTATAVQTGTPQRTVPGATTTSSAATETMENVKKCKNFLSTLIKLASSGKQSTETAANVKELVQNLLDGKIEAEDFTSRLYRELNSSPQPYLVPFLKRSLPALRQLTPDSAAFIQQSQQQPPPPTSQATTALTAVVLSSSVQRTAGKTAATVTSALQPPVLSLTQPTQVGVGKQGQPTPLVIQQPPKPGALIRPPQVTLTQTPMVALRQPHNRIMLTTPQQIQLNPLQPVPVVKPAVLPGTKALSAVSAQAAAAQKNKLKEPGGGSFRDDDDINDVASMAGVNLSEESARILATNSELVGTLTRSCKDETFLLQAPLQRRILEIGKKHGITELHPDVVSYVSHATQQRLQNLVEKISETAQQKNFSYKDDDRYEQASDVRAQLKFFEQLDQIEKQRKDEQEREILMRAAKSRSRQEDPEQLRLKQKAKEMQQQELAQMRQRDANLTALAAIGPRKKRKVDCPGPGSGAEGSGPGSVVPGSSGVGTPRQFTRQRITRVNLRDLIFCLENERETSHSLLLYKAFLK [TAF4]
solubility in G1/S (log2) (HeLa Kyoto [1]): 0.132
solubility change mitosis (log2) (HeLa Kyoto [2]): 0.0124

MLPGVGVFGTSLTARVIIPLLKDEGFAVKALWGRTQEEAEELAKEMSVPFYTSRIDEVLLHQDVDLVCINLPPPLTRQIAVKTLGIGKNVICDRTATPLDAFRMTSAAHYYPKLMSIMGNVLRFLPAFVRMKQLIEEGYVGEPLVCEVQVHGGSLLGKKYNWSCDDLMGGGGLHSVGTYIIDLLTFLTGQKAVKVHGLLKTFVKQTDHIKGIRQITSDDFCTFQMVLEGGVCCTVTLNFNVPGEFKQDVTVVGSAGRLLAVGTDLYGQRNSAPEQELLVQDATPVSNSLLPEKAFSDIPSPYLRGTIKMMQAVRQAFQDQDDRRTWDGRPLTMAATFDDCLYALCVVDTIKRSSQTGEWQNIAIMTEEPELSPAYLISEAMRRSRMSLYC [GFOD1]
solubility in G1/S (log2) (HeLa Kyoto [1]): -0.0575
solubility change mitosis (log2) (HeLa Kyoto [2]): -0.244

EPB41L5
solubility in G1/S (log2) (HeLa Kyoto [1]): -0.503
solubility change mitosis (log2) (HeLa Kyoto [2]): 0.268

MPALACLRRLCRHVSPQAVLFLLFIFCLFSVFISAYYLYGWKRGLEPSADAPEPDCGDPPPVAPSRLLPLKPVQAATPSRTDPLVLVFVESLYSQLGQEVVAILESSRFKYRTEIAPGKGDMPTLTDKGRGRFALIIYENILKYVNLDAWNRELLDKYCVAYGVGIIGFFKANENSLLSAQLKGFPLFLHSNLGLKDCSINPKSPLLYVTRPSEVEKGVLPGEDWTVFQSNHSTYEPVLLAKTRSSESIPHLGADAGLHAALHATVVQDLGLHDGIQRVLFGNNLNFWLHKLVFVDAVAFLTGKRLSLPLDRYILVDIDDIFVGKEGTRMKVEDVKALFDTQNELRAHIPNFTFNLGYSGKFFHTGTNAEDAGDDLLLSYVKEFWWFPHMWSHMQPHLFHNQSVLAEQMALNKKFAVEHGIPTDMGYAVAPHHSGVYPVHVQLYEAWKQVWSIRVTSTEEYPHLKPARYRRGFIHNGIMVLPRQTCGLFTHTIFYNEYPGGSSELDKIINGGELFLTVLLNPISIFMTHLSNYGNDRLGLYTFKHLVRFLHSWTNLRLQTLPPVQLAQKYFQIFSEEKDPLWQDPCEDKRHKDIWSKEKTCDRFPKLLIIGPQKTGTTALYLFLGMHPDLSSNYPSSETFEEIQFFNGHNYHKGIDWYMEFFPIPSNTTSDFYFEKSANYFDSEVAPRRAAALLPKAKVLTILINPADRAYSWYQHQRAHDDPVALKYTFHEVITAGSDASSKLRALQNRCLVPGWYATHIERWLSAYHANQILVLDGKLLRTEPAKVMDMVQKFLGVTNTIDYHKTLAFDPKKGFWCQLLEGGKTKCLGKSKGRKYPEMDLDSRAFLKDYYRDHNIELSKLLYKMGQTLPTWLREDLQNTR [NDST1]
solubility in G1/S (log2) (HeLa Kyoto [1]): -0.0442
solubility change mitosis (log2) (HeLa Kyoto [2]): -0.0111

MILTKAQYDEIAQCLVSVPPTRQSLRKLKQRFPSQSQATLLSIFSQEYQKHIKRTHAKHHTSEAIESYYQRYLNGVVKNGAAPVLLDLANEVDYAPSLMARLILERFLQEHEETPPSKSIINSMLRDPSQIPDGVLANQVYQCIVNDCCYGPLVDCIKHAIGHEHEVLLRDLLLEKNLSFLDEDQLRAKGYDKTPDFILQVPVAVEGHIIHWIESKASFGDECSHHAYLHDQFWSYWNRFGPGLVIYWYGFIQELDCNRERGILLKACFPTNIVTLCHSIA [C15ORF41]
solubility in G1/S (log2) (HeLa Kyoto [1]): 0.176
solubility change mitosis (log2) (HeLa Kyoto [2]): 0.0246

MASSLLAGERLVRALGPGGELEPERLPRKLRAELEAALGKKHKGGDSSSGPQRLVSFRLIRDLHQHLRERDSKLYLHELLEGSEIYLPEVVKPPRNPELVARLEKIKIQLANEEYKRITRNVTCQDTRHGGTLSDLGKQVRSLKALVITIFNFIVTVVAAFVCTYLGSQYIFTEMASRVLAALIVASVVGLAELYVMVRAMEGELGEL [TMEM199]
solubility in G1/S (log2) (HeLa Kyoto [1]): -0.349
solubility change mitosis (log2) (HeLa Kyoto [2]): -0.0986

MAGALVRKAADYVRSKDFRDYLMSTHFWGPVANWGLPIAAINDMKKSPEIISGRMTFALCCYSLTFMRFAYKVQPRNWLLFACHATNEVAQLIQGGRLIKHEMTKTASA [MPC1]
solubility in G1/S (log2) (HeLa Kyoto [1]): -0.461
solubility change mitosis (log2) (HeLa Kyoto [2]): -0.165

MELAQEARELGCWAVEEMGVPVAARAPESTLRRLCLGQGADIWAYILQHVHSQRTVKKIRGNLLWYGHQDSPQVRRKLELEAAVTRLRAEIQELDQSLELMERDTEAQDTAMEQARQHTQDTQRRALLLRAQAGAMRRQQHTLRDPMQRLQNQLRRLQDMERKAKVDVTFGSLTSAALGLEPVVLRDVRTACTLRAQFLQNLLLPQAKRGSLPTPHDDHFGTSYQQWLSSVETLLTNHPPGHVLAALEHLAAEREAEIRSLCSGDGLGDTEISRPQAPDQSDSSQTLPSMVHLIQEGWRTVGVLVSQRSTLLKERQVLTQRLQGLVEEVERRVLGSSERQVLILGLRRCCLWTELKALHDQSQELQDAAGHRQLLLRELQAKQQRILHWRQLVEETQEQVRLLIKGNSASKTRLCRSPGEVLALVQRKVVPTFEAVAPQSRELLRCLEEEVRHLPHILLGTLLRHRPGELKPLPTVLPSIHQLHPASPRGSSFIALSHKLGLPPGKASELLLPAAASLRQDLLLLQDQRSLWCWDLLHMKTSLPPGLPTQELLQIQASQEKQQKENLGQALKRLEKLLKQALERIPELQGIVGDWWEQPGQAALSEELCQGLSLPQWRLRWVQAQGALQKLCS [HAUS5]
solubility in G1/S (log2) (HeLa Kyoto [1]): 0.307
solubility change mitosis (log2) (HeLa Kyoto [2]): -0.0591

FAM208B
solubility in G1/S (log2) (HeLa Kyoto [1]): -0.671
solubility change mitosis (log2) (HeLa Kyoto [2]): 0.423

MAARGRRAWLSVLLGLVLGFVLASRLVLPRASELKRAGPRRRASPEGCRSGQAAASQAGGARGDARGAQLWPPGSDPDGGPRDRNFLFVGVMTAQKYLQTRAVAAYRTWSKTIPGKVQFFSSEGSDTSVPIPVVPLRGVDDSYPPQKKSFMMLKYMHDHYLDKYEWFMRADDDVYIKGDRLENFLRSLNSSEPLFLGQTGLGTTEEMGKLALEPGENFCMGGPGVIMSREVLRRMVPHIGKCLREMYTTHEDVEVGRCVRRFAGVQCVWSYEMQQLFYENYEQNKKGYIRDLHNSKIHQAITLHPNKNPPYQYRLHSYMLSRKISELRHRTIQLHREIVLMSKYSNTEIHKEDLQLGIPPSFMRFQPRQREEILEWEFLTGKYLYSAVDGQPPRRGMDSAQREALDDIVMQVMEMINANAKTRGRIIDFKEIQYGYRRVNPMYGAEYILDLLLLYKKHKGKKMTVPVRRHAYLQQTFSKIQFVEHEELDAQELAKRINQESGSLSFLSNSLKKLVPFQLPGSKSEHKEPKDKKINILIPLSGRFDMFVRFMGNFEKTCLIPNQNVKLVVLLFNSDSNPDKAKQVELMRDYRIKYPKADMQILPVSGEFSRALALEVGSSQFNNESLLFFCDVDLVFTTEFLQRCRANTVLGQQIYFPIIFSQYDPKIVYSGKVPSDNHFAFTQKTGFWRNYGFGITCIYKGDLVRVGGFDVSIQGWGLEDVDLFNKVVQAGLKTFRSQEVGVVHVHHPVFCDPNLDPKQYKMCLGSKASTYGSTQQLAEMWLEKNDPSYSKSSNNNGSVRTA [CHSY1]
solubility in G1/S (log2) (HeLa Kyoto [1]): -0.388
solubility change mitosis (log2) (HeLa Kyoto [2]): 0.159
